± gives the uncertainty stated by the source.
B1: Transcription factor SOX-11, residues 50 to 117; numbered along this chain, P35716 (parent)
chain: KRPMNAFMVWSKIERRKIMEQSPDMHNAEISKRLGKRWKMLKDSEKIPFIREAERLRLKHMADYPDYK

Variants of: B1
Assay: abundance fitness (aPCA) (normalised: wild type 0, dead -1); higher = more abundant; growth selection in yeast, the domain comes from the species named
Conditions: Homo sapiens

Variant | abundance fitness
D66P | -0.234 ± 0.28
D66R | -0.38 ± 0.31
D66Y | -0.36 ± 0.087
M4C | -0.787 ± 0.11
M4W | -0.251 ± 0.13
M4K | -0.539 ± 0.23
M4G | -0.28 ± 0.063
N27M | -0.287 ± 0.15
N27K | -0.178 ± 0.15
N27R | -0.341 ± 0.07
N27T | -0.033 ± 0.07
N27V | -0.178 ± 0.055
N27P | 0.4 ± 0.065
N27G | -0.096 ± 0.056
N27E | 0.333 ± 0.11
S22Y | 0.165 ± 0.046
S22F | 0.118 ± 0.049
S22W | -0.024 ± 0.1
S22H | 0.052 ± 0.062
S22A | -0.061 ± 0.066
E45T | -0.942 ± 0.21
E45W | -0.447 ± 0.14
E45V | -0.425 ± 0.071
E45C | -0.548 ± 0.085

Variant | abundance fitness
E45I | -0.336 ± 0.064
E45H | -0.45 ± 0.077
K59M | 0.039 ± 0.089
L56W | -0.888 ± 0.26
L56Q | -0.26 ± 0.18
L56C | -0.533 ± 0.078
L56T | -0.267 ± 0.076
G35H | 0.266 ± 0.061
F49V | -0.635 ± 0.067
F49N | -0.881 ± 0.1
F49M | -0.301 ± 0.2
F49H | -0.739 ± 0.11
F49G | -0.739 ± 0.076
F49W | -0.256 ± 0.11
F49L | -0.731 ± 0.09
N5L | -0.65 ± 0.075
N5E | -0.172 ± 0.16
N5I | -0.601 ± 0.071
N5Y | -0.524 ± 0.061
N5Q | -0.831 ± 0.27
N5V | -0.491 ± 0.069
A62Y | -0.163 ± 0.043
A62W | -0.43 ± 0.098
A62H | -0.251 ± 0.059

Variant | abundance fitness
A62M | -0.181 ± 0.082
A62F | -0.2 ± 0.042
A62C | -0.062 ± 0.047
A62S | 0.116 ± 0.039
S11F | -0.471 ± 0.096
S11I | -1.19 ± 0.27
S11P | -0.599 ± 0.2
S11R | -0.767 ± 0.21
R15F | -0.601 ± 0.1
R15C | -0.384 ± 0.076
R15V | -0.397 ± 0.077
R15M | -0.142 ± 0.2
S31C | -0.2 ± 0.074
S31F | -0.246 ± 0.064
S31Y | -0.262 ± 0.067
S31H | -0.244 ± 0.084
S31P | -0.855 ± 0.18
S31L | -0.2 ± 0.063
S31G | -0.278 ± 0.058
S31T | 0.029 ± 0.068
E14I | -0.722 ± 0.11
E14Q | -0.247 ± 0.19
E14Y | -0.696 ± 0.11
E14W | -0.734 ± 0.45

Variant | abundance fitness
E14M | -0.352 ± 0.17
D43E | -0.127 ± 0.11
D43P | 0.009 ± 0.081
D43H | -0.129 ± 0.059
D43C | -0.448 ± 0.066
D43V | -0.397 ± 0.061
M19S | -0.264 ± 0.056
M19I | -0.062 ± 0.057
M19W | -0.762 ± 0.19
M19C | -0.29 ± 0.075
M19V | -0.042 ± 0.052
M19G | -0.435 ± 0.076
P23N | -0.843 ± 0.11
P23M | -0.85 ± 0.24
P23E | -0.49 ± 0.19
P23R | -0.74 ± 0.091
P23Y | -0.665 ± 0.09
P23S | -0.453 ± 0.058
L41P | -1.14 ± 0.21
L41Y | -0.753 ± 0.08
L41W | -0.867 ± 0.36
L41D | -0.849 ± 0.12
M61G | 0.07 ± 0.059
M61D | 0.09 ± 0.059

Variant | abundance fitness
M61P | 0.008 ± 0.078
M61H | -0.086 ± 0.06
M61R | 0.033 ± 0.065
M61S | 0.047 ± 0.048
M61V | 0.048 ± 0.057
P3N | 0.199 ± 0.077
P3S | 0.097 ± 0.062
P3R | -0.407 ± 0.077
P3C | -0.442 ± 0.088
E20H | -0.319 ± 0.14
E20Q | -0.83 ± 0.34
E20P | -0.812 ± 0.16
E20I | -0.569 ± 0.085
R16V | 0 ± 0.054
R16Y | -0.372 ± 0.064
R16D | -0.036 ± 0.075
R16S | -0.134 ± 0.049
R16P | -0.089 ± 0.1
H26K | 0.195 ± 0.1
H26I | -0.266 ± 0.059
H26C | 0.226 ± 0.047
H26E | 0.383 ± 0.14
H26M | -0.194 ± 0.15
H26S | 0.406 ± 0.041

Variant | abundance fitness
A53I | -0.709 ± 0.098
A53E | -0.622 ± 0.18
A53R | -0.77 ± 0.087
A53V | -0.749 ± 0.085
A53D | -0.961 ± 0.12
A53C | -0.728 ± 0.084
A53W | -0.91 ± 0.2
A53T | -0.649 ± 0.11
K17M | -0.533 ± 0.21
K17S | -0.518 ± 0.067
K17L | -0.373 ± 0.078
K17C | -0.527 ± 0.075
K17I | -0.403 ± 0.065
W10C | -1.01 ± 0.14
W10N | -0.594 ± 0.079
W10S | -0.913 ± 0.1
W10Q | -1.09 ± 0.33
W10A | -0.543 ± 0.12
W10M | -0.345 ± 0.14
W38D | -0.696 ± 0.09
W38T | -1.05 ± 0.16
W38S | -0.59 ± 0.063
W38C | -0.644 ± 0.081
W38E | -1.27 ± 0.46

Variant | abundance fitness
W38N | -0.914 ± 0.11
W38F | -0.801 ± 0.076
W38Q | -0.068 ± 0.36
W38K | -0.375 ± 0.22
W38H | -0.851 ± 0.12
W38R | -0.653 ± 0.12
Q21V | -0.223 ± 0.055
Q21I | -0.13 ± 0.056
Q21H | -0.194 ± 0.062
Q21T | -0.13 ± 0.077
Q21Y | -0.581 ± 0.077
A28E | -0.061 ± 0.16
A28P | -0.562 ± 0.1
A28M | -0.529 ± 0.21
A28Q | -0.247 ± 0.15
L58I | -0.087 ± 0.054
L58Y | -0.195 ± 0.055
I13K | -0.717 ± 0.23
I13Q | -0.06 ± 0.14
I13H | -0.153 ± 0.078
I13W | -0.684 ± 0.15
I13T | -0.164 ± 0.064
I13V | -0.128 ± 0.054
